Source: patent US20210349104A1 (MESO SCALE TECHNOLOGIES, published 2021)

B1: HCoV-OC43 S protein (other)
chain: AVIGDLKCTSDNINDKDTGPPPISTDTVDVTNGLGTYYVLDRVYLNTTLFLNGYYPTSGSTYRNMALKGSVLLSRLWFKPPFLSDFINGIFAKVKNTKVIKDRVMYSEFPAITIGSTFVNTSYSVVVQPRTINSTQDGDNKLQGLLEVSVCQYNMCEYPQTICHPNLGNHRKELWHLDTGVVSCLYKRNFTYDVNADYLYFHFYQEGGTFYAYFTDTGVVTKFLFNVYLGMALSHYYVMPLTCNSKLTLEYWVTPLTSRQYLLAFNQDGIIFNAEDCMSDFMSEIKCKTQSIAPPTGVYELNGYTVQPIADVYRRKPNLPNCNIEAWLNDKSVPSPLNWERKTFSNCNFNMSSLMSFIQADSFTCNNIDAAKIYGMCFSSITIDKFAIPNGRKVDLQLGNLGYLQSFNYRIDTTATSCQLYYNLPAANVSVSRFNPSTWNKRFGFIEDSVFKPRPAGVLTNHDVVYAQHCFKAPKNFCPCKLNGSCVGSGPGKNNGIGTCPAGTNYLTCDNLCTPDPITFTGTYKCPQTKSLVGIGEHCSGLAVKSDYCGGNSCTCRPQAFLGWSADSCLQGDKCNIFANFILHDVNSGLTCSTDLQKANTDIILGVCVNYDLYGILGQGIFVEVNATYYNSWQNLLYDSNGNLYGFRDYIINRTFMIRSCYSGRVSAAFHANSSEPALLFRNIKCNYVFNNSLTRQLQPINYFDSYLGCVVNAYNSTAISVQTCDLTVGSGYCVDYSKNRRSRGAITTGYRFTNFEPFTVNSVNDSLEPVGGLYEIQIPSEFTIGNMVEFIQTSSPKVTIDCAAFVCGDYAACKSQLVEYGSFCDNINAILTEVNELLDTTQLQVANSLMNGVTLSTKLKDGVNFNVDDINFSPVLGCLGSECSKASSRSAIEDLLFDKVKLSDVGFVEAYNNCTGGAEIRDLICVQSYKGIKVLPPLLSENQISGYTLAATSASLFPPWTAAAGVPFYLNVQYRINGLGVTMDVLSQNQKLIANAFNNALYAIQEGFDATNSALVKIQAVVNANAEALNNLLQQLSNRFGAISASLQEILSRLDALEAEAQIDRLINGRLTALNAYVSQQLSDSTLVKFSAAQAMEKVNECVKSQSSRINFCGNGNHIISLVQNAPYGLYFIHFSYVPTKYVTARVSPGLCIAGDRGIAPKSGYFVNVNNTWMYTGSGYYYPEPITENNVVVMSTCAVNYTKAPYVMLNTSIPNLPDFKEELDQWFKNQTSVAPDLSLDYINVTFLDLQVEMNRLQEAIKVLNQSYINLKDIGTYEY
notes: also called S protein from HCoV-OC43
B2: MERS-CoV S protein (other)
chain: YVDVGPDSVKSACIEVDIQQTFFDKTWPRPIDVSKADGIIYPQGRTYSNITITYQGLFPYQGDHGDMYVYSAGHATGTTPQKLFVANYSQDVKQFANGFVVRIGAAANSTGTVIISPSTSATIRKIYPAFMLGSSVGNFSDGKMGRFFNHTLVLLPDGCGTLLRAFYCILEPRSGNHCPAGNSYTSFATYHTPATDCSDGNYNRNASLNSFKEYFNLRNCTFMYTYNITEDEILEWFGITQTAQGVHLFSSRYVDLYGGNMFQFATLPVYDTIKYYSIIPHSIRSIQSDRKAWAAFYVYKLQPLTFLLDFSVDGYIRRAIDCGFNDLSQLHCSYESFDVESGVYSVSSFEAKPSGSVVEQAEGVECDFSPLLSGTPPQVYNFKRLVFTNCNYNLTKLLSLFSVNDFTCSQISPAAIASNCYSSLILDYFSYPLSMKSDLSVSSAGPISQFNYKQSFSNPTCLILATVPHNLTTITKPLKYSYINKCSRFLSDDRTEVPQLVNANQYSPCVSIVPSTVWEDGDYYRKQLSPLEGGGWLVASGSTVAMTEQLQMGFGITVQYGTDTNSVCPKLEFANDTKIASQLGNCVEYSLYGVSGRGVFQNCTAVGVRQQRFVYDAYQNLVGYYSDDGNYYCLRACVSVPVSVIYDKETKTHATLFGSVACEHISSTMSQYSRSTRSMLKRRDSTYGPLQTPVGCVLGLVNSSLFVEDCKLPLGQSLCALPDTPSTLTPRSVRSVPGEMRLASIAFNHPIQVDQLNSSYFKLSIPTNFSFGVTQEYIQTTIQKVTVDCKQYVCNGFQKCEQLLREYGQFCSKINQALHGANLRQDDSVRNLFASVKSSQSSPIIPGFGGDFNLTLLEPVSISTGSRSARSAIEDLLFDKVTIADPGYMQGYDDCMQQGPASARDLICAQYVAGYKVLPPLMDVNMEAAYTSSLLGSIAGVGWTAGLSSFAAIPFAQSIFYRLNGVGITQQVLSENQKLIANKFNQALGAMQTGFTTTNEAFHKVQDAVNNNAQALSKLASELSNTFGAISASIGDIIQRLDVLEQDAQIDRLINGRLTTLNAFVAQQLVRSESAALSAQLAKDKVNECVKAQSKRSGFCGQGTHIVSFVVNAPNGLYFMHVGYYPSNHIEVVSAYGLCDAANPTNCIAPVNGYFIKTNNTRIVDEWSYTGSSFYAPEPITSLNTKYVAPQVTYQNISTNLPPPLLGNSTGIDFQDELDEFFKNVSTSIPNFGSLTQINTTLLDLTYEMLSLQQVVKALNESYIDLKELGNYTY
notes: also called S protein from MERS-CoV
B3: HCoV-HKU1 S protein (other)
chain: AVIGDFNCTNFAINDLNTTVPRISEYVVDVSYGLGTYYILDRVYLNTTILFTGYFPKSGANFRDLSLKGTTYLSTLWYQKPFLSDFNNGIFSRVKNTKLYVNKTLYSEFSTIVIGSVFINNSYTIVVQPHNGVLEITACQYTMCEYPHTICKSKGSSRNESWHFDKSEPLCLFKKNFTYNVSTDWLYFHFYQERGTFYAYYADSGMPTTFLFSLYLGTLLSHYYVLPLTCNAISSNTDNETLQYWVTPLSKRQYLLKFDNRGVITNAVDCSSSFFSEIQCKTKSLLPNTGVYDLSGFTVKPVATVHRRIPDLPDCDIDKWLNNFNVPSPLNWERKIFSNCNFNLSTLLRLVHTDSFSCNNFDESKIYGSCFKSIVLDKFAIPNSRRSDLQLGSSGFLQSSNYKIDTTSSSCQLYYSLPAINVTINNYNPSSWNRRYGFNNFNLSSHSVVYSRYCFSVNNTFCPCAKPSFASSCKSHKPPSASCPIGTNYRSCESTTVLDHTDWCRCSCLPDPITAYDPRSCSQKKSLVGVGEHCAGFGVDEEKCGVLDGSYNVSCLCSTDAFLGWSYDTCVSNNRCNIFSNFILNGINSGTTCSNDLLQPNTEVFTDVCVDYDLYGITGQGIFKEVSAVYYNSWQNLLYDSNGNIIGFKDFVTNKTYNIFPCYAGRVSAAFHQNASSLALLYRNLKCSYVLNNISLTTQPYFDSYLGCVFNADNLTDYSVSSCALRMGSGFCVDYNSPSSSSSRRKRRSISASYRFVTFEPFNVSFVNDSIESVGGLYEIKIPTNFTIVGQEEFIQTNSPKVTIDCSLFVCSNYAACHDLLSEYGTFCDNINSILDEVNGLLDTTQLHVADTLMQGVTLSSNLNTNLHFDVDNINFKSLVGCLGPHCGSSSRSFFEDLLFDKVKLSDVGFVEAYNNCTGGSEIRDLLCVQSFNGIKVLPPILSESQISGYTTAATVAAMFPPWSAAAGIPFSLNVQYRINGLGVTMDVLNKNQKLIATAFNNALLSIQNGFSATNSALAKIQSVVNSNAQALNSLLQQLFNKFGAISSSLQEILSRLDALEAQVQIDRLINGRLTALNAYVSQQLSDISLVKFGAALAMEKVNECVKSQSPRINFCGNGNHILSLVQNAPYGLLFMHFSYKPISFKTVLVSPGLCISGDVGIAPKQGYFIKHNDHWMFTGSSYYYPEPISDKNVVFMNTCSVNFTKAPLVYLNHSVPKLSDFESELSHWFKNQTSIAPNLTLNLHTINATFLDLYYEMNLIQESIKSLN
notes: also called S protein from HCoV-HKU1

target: T1, ACE2 (angiotensin-converting enzyme 2), labeled (human, UniProt Q9BYF1 18-740); test: labeled ACE2 on immobilized Mixed Panel, ECL
T1 construct: also called labeled ACE2
T1 sequence (Q9BYF1 18-740 limits assumed): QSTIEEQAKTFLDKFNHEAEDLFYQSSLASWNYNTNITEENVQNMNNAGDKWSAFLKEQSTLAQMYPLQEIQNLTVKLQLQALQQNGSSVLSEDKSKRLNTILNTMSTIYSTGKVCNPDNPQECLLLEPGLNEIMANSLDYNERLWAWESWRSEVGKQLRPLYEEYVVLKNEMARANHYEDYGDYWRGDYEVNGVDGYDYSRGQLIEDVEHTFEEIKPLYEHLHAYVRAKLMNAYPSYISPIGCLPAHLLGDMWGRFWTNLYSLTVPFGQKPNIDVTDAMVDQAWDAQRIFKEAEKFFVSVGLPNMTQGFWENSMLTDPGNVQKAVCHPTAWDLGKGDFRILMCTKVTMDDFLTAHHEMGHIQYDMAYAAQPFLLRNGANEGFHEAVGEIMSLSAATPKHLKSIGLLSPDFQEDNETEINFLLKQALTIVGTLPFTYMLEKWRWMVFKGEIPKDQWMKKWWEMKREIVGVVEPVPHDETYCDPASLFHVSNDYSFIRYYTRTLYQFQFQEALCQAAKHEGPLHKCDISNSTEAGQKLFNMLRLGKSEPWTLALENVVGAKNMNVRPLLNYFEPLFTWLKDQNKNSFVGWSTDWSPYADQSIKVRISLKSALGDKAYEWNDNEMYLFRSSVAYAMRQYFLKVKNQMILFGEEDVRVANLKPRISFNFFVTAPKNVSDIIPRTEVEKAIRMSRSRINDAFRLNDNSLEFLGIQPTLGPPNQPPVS

| Binder | binding result |
| --- | --- |
| B1 | no binding |
| B2 | no binding |
| B3 | no binding |
